This is an account of results in patent US20230288399A1 (FNCT BIOTECH, published 2023).

Residue numbers refer to the chain shown, from its start. In names and notes the source's numbering stands.

Assay [1] has as its target T1, SRC (UniProt P12931 2-536).
T1 construct: Endogenous protein in colorectal cancer cell lysates or cells; also called p-SRC (phosphorylated form)
In words: co-immunoprecipitation in SW-480 and HCT-116 colorectal cancer cells. An excerpt: As a result of performing immunoprecipitation to confirm the expression correlation between ICAM-1 and SRC in SW-480 and HCT-116 colorectal cancer cells, it was confirmed that ICAM-1 binds to SRC endogenously, as shown in FIG. 3D.

Assay [2] addresses T1, SRC. In words: immunoprecipitation with ICAM-1 Tyr512 mutants. The method, then:
Furthermore, in order to confirm that ICAM-1 binds to SRC by a specific residue, an immunoprecipitation reaction was performed using a mutant with phosphomimetics form that inhibits (Y512A) or activates (Y512D) the Tyr512 phosphorylation residue of ICAM-1.

B1: intracellular adhesion molecule 1 (ICAM-1) (receptor)
chain: QTSVSPSKVILPRGGSVLVTCSTSCDQPKLLGIETPLPKKELLLPGNNRKVYELSNVQEDSQPMCYSNCPDGQSTAKTFLTVYWTPERVELAPLPSWQPVGKNLTLRCQVEGGAPRANLTVVLLRGEKELKREPAVGEPAEVTTTVLVRRDHHGANFSCRTELDLRPQGLELFENTSAPYQLQTFVLPATPPQLVSPRVLEVDTQGTVVCSLDGLFPVSEAQVHLALGDQRLNPTVTYGNDSFSAKASVSVTAEDEGTQRLTCAVILGNQSQETLQTVTIYSFPAPNVILTKPEVSEGTEVTVKCEAHPRAKVTLNGVPAQPLGPRAQLLLKATPEDNGRSFSCSATLEVAGQLIHKNQTRELRVLYGPRLDERDCPGNWTWPENSQQTPMCQAWGNPLPELKCLKDGTFPLPIGESVTVTRDLEGTYLCRARSTQGEVTRKVTVNVLSPRYEIVIITVVAAAVIMGTAGLSTYLYNRQRKIKKYRLQQAQKGTPMKPNTQATPP
notes: The assay used the endogenous protein of SW-480 and HCT-116 cells
B1: the binding result with SRC [1] was “binds”.

B2: ICAM-1 Y512D mutant (receptor)
chain: B1 chain with Y485D
Consider B2, for which the binding result with SRC [2] is “binds”.
